In this data set the test system is Escherichia coli TOP10. In words: shrunken log2 fold change of peptide-encoding DNA abundance (4.5 h post-induction vs induction); higher = less antimicrobial activity (less host growth inhibition). The following applies: time post-induction: 4.5 h; library: site-saturation at positions 5, 18, 19, 20.
For the sequence RRIRGRPPRLPRPRPRPSCRPRP, the “shrunken log2 fold change” value was determined as 0.417.
As to RRIRMRPPRLPRPRPRPRPHPRP, the “shrunken log2 fold change” value amounted to 1.05.
Consider RRIRLRPPRLPRPRPRPPQFPRP, for which the “shrunken log2 fold change” value was -0.165.
With RRIRDRPPRLPRPRPRPTSYPRP, the “shrunken log2 fold change” value is -0.189.
With RRIRARPPRLPRPRPRPNMHPRP the figure was 0.0638; with RRIRGRPPRLPRPRPRPDCRPRP, 0.68; with RRIRRRPPRLPRPRPRPNEIPRP, -0.0559.
As for RRIRSRPPRLPRPRPRPLRAPRP, the “shrunken log2 fold change” value turned out to be 0.858.
With RRIRYRPPRLPRPRPRPSDWPRP the figure was -0.152.
With RRIRLRPPRLPRPRPRPRKSPRP the figure was 0.376.
For RRIRIRPPRLPRPRPRPNKFPRP, the “shrunken log2 fold change” value is -0.992.
With RRIRNRPPRLPRPRPRPYLIPRP the figure was -0.0464; with RRIRIRPPRLPRPRPRPLVTPRP, -0.105.
Consider RRIRIRPPRLPRPRPRPYGDPRP, for which the “shrunken log2 fold change” value was 0.0112.
Turning to RRIRTRPPRLPRPRPRPPYEPRP, the “shrunken log2 fold change” value is 0.0319.
For the sequence RRIRNRPPRLPRPRPRPYWPPRP, the “shrunken log2 fold change” value is -0.199.
Then RRIRNRPPRLPRPRPRPNTNPRP, with -0.59; and RRIRYRPPRLPRPRPRPYMEPRP, with -0.0102; and RRIRIRPPRLPRPRPRPPSQPRP, with 0.258.
Then RRIRYRPPRLPRPRPRPAVIPRP, with -0.0517.
Take RRIRERPPRLPRPRPRPKIPPRP: the “shrunken log2 fold change” value was -0.136.
As for RRIRSRPPRLPRPRPRPVIWPRP, the “shrunken log2 fold change” value is 0.0455.
Take RRIRKRPPRLPRPRPRPPYSPRP: the “shrunken log2 fold change” value is -0.433.
With RRIRTRPPRLPRPRPRPVHFPRP the figure was 0.218.
In the case of RRIRERPPRLPRPRPRPMMEPRP, the “shrunken log2 fold change” value was -0.0582.
Turning to RRIRFRPPRLPRPRPRPFYVPRP, the “shrunken log2 fold change” value is -0.417.
Regarding RRIRERPPRLPRPRPRPPTSPRP, the “shrunken log2 fold change” value was determined as 0.0163.
RRIRPRPPRLPRPRPRPYCKPRP: the “shrunken log2 fold change” value is -0.896.
RRIRLRPPRLPRPRPRPWIGPRP: the “shrunken log2 fold change” value is -0.177.
On to RRIRERPPRLPRPRPRPCHHPRP, for which the “shrunken log2 fold change” value is -0.209.
In the case of RRIRSRPPRLPRPRPRPPHHPRP, the “shrunken log2 fold change” value is -0.0759.
As to RRIRGRPPRLPRPRPRPLKFPRP, the “shrunken log2 fold change” value was 0.11.
Then RRIRMRPPRLPRPRPRPCEEPRP, with 0.0566; and RRIRERPPRLPRPRPRPSWYPRP, with -1.
Turning to RRIRLRPPRLPRPRPRPERQPRP, the “shrunken log2 fold change” value was 0.0746.
With RRIRIRPPRLPRPRPRPEINPRP, the “shrunken log2 fold change” value is -0.993.
For the sequence RRIRLRPPRLPRPRPRPCHIPRP, the “shrunken log2 fold change” value was -0.113.
For RRIRERPPRLPRPRPRPCVAPRP, the “shrunken log2 fold change” value was found to be 0.258.
For the sequence RRIRPRPPRLPRPRPRPNCFPRP, the “shrunken log2 fold change” value was -0.0261.
With RRIRIRPPRLPRPRPRPVLAPRP the figure was -0.0133.
Regarding RRIRHRPPRLPRPRPRPTFKPRP, the “shrunken log2 fold change” value is -0.537.
For RRIRVRPPRLPRPRPRPKIWPRP, the “shrunken log2 fold change” value was determined as 0.0958.
Take RRIRPRPPRLPRPRPRPYHMPRP: the “shrunken log2 fold change” value is -0.316.
On to RRIRQRPPRLPRPRPRPKEIPRP, for which the “shrunken log2 fold change” value is -0.223.
Regarding RRIRSRPPRLPRPRPRPEYGPRP, the “shrunken log2 fold change” value was -0.346.
For RRIRVRPPRLPRPRPRPGGMPRP, the “shrunken log2 fold change” value turned out to be 0.0665.
Take RRIRDRPPRLPRPRPRPNYFPRP: the “shrunken log2 fold change” value is -0.0536.
On to RRIRDRPPRLPRPRPRPILSPRP, for which the “shrunken log2 fold change” value is -0.216.
Then RRIRGRPPRLPRPRPRPGNHPRP, with -0.147.
Then RRIRVRPPRLPRPRPRPNFHPRP, with -0.115.

Values taken from the supplement of paper PMC9112550, “Optimization of the antimicrobial peptide Bac7 by deep mutational scanning” (BMC Biology, 2022).
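Further: peptides expressed intracellularly from a pBAD plasmid library in pooled LB shake-flask culture, induced with 0.3% L-arabinose, DNA abundance read by NGS, three biological replicates, DESeq2 with apeglm shrinkage.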
